Assay results reported in patent publication US20220265819A1.

Molecular target: full length pHrodo-labelled monomeric (P301S) 2N4R tau (human) (UniProt P10636)
Assay: cell-based or functional assay

Sequence of full length pHrodo-labelled monomeric (P301S) 2N4R tau (human) (P10636 other isoform, or with tags, fused parts or gaps P301S P301S): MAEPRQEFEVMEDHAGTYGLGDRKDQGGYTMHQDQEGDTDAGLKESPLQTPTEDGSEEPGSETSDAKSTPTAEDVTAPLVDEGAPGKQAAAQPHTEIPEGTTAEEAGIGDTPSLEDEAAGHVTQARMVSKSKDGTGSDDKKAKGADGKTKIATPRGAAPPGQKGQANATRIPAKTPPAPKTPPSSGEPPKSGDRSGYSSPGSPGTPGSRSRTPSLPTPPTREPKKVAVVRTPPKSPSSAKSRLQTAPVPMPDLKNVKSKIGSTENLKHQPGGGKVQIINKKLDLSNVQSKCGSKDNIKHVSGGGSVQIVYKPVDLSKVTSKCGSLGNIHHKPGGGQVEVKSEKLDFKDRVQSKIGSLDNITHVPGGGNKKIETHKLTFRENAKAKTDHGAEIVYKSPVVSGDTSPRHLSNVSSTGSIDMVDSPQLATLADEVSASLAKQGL

inhibition of uptake of monomeric tau into human iPSC-derived neurons	Substance
16.9 % inhibition	human IgG1 isotype control (antibody)
14.5 % inhibition	isotype control rabbit IgG (Abcam) (antibody)
